{
  "source": "paper PMC6351000",
  "target": "HIV-1 envelope glycoprotein (Env) of the Tier 1B subtype B strain BaL.01, cell surface-expressed (HIV-1 (subtype B, strain BaL.01))",
  "data": [
    {"substance": "recombinant two-domain sCD4 (sCD4-183_avi_his.bio) (domain or fragment)", "values": [
      {"measurement": "sCD4 concentration at the peak of the basal epitope exposure curve of V3 crown mAb 1-79 (antibody staining of Env-expressing cells, flow cytometry, increasing sCD4)", "value": 5, "unit": "µM"}
    ]}
  ]
}
